A short description of this data set: whole-cell patch clamp, AITC amplitude and rectification. Conditions: glycan lost; control: vehicle-treated (untreated) cells. On the technique in general: In patch-clamp work, channel activity is measured electrically.

B1: TRPA1: tunicamycin 5 μg/ml, 24 h (protein)
parent chain: MKRSLRKMWRPGEKKEPQGVVYEDVPDDTEDFKESLKVVFEGSAYGLQNFNKQKKLKRCDDMDTFFLHYAAAEGQIELMEKITRDSSLEVLHEMDDYGNTPLHCAVEKNQIESVKFLLSRGANPNLRNFNMMAPLHIAVQGMNNEVMKVLLEHRTIDVNLEGENGNTAVIIACTTNNSEALQILLKKGAKPCKSNKWGCFPIHQAAFSGSKECMEIILRFGEEHGYSRQLHINFMNNGKATPLHLAVQNGDLEMIKMCLDNGAQIDPVEKGRCTAIHFAATQGATEIVKLMISSYSGSVDIVNTTDGCHETMLHRASLFDHHELADYLISVGADINKIDSEGRSPLILATASASWNIVNLLLSKGAQVDIKDNFGRNFLHLTVQQPYGLKNLRPEFMQMQQIKELVMDEDNDGCTPLHYACRQGGPGSVNNLLGFNVSIHSKSKDKKSPLHFAASYGRINTCQRLLQDISDTRLLNEGDLHGMTPLHLAAKNGHDKVVQLLLKKGALFLSDHNGWTALHHASMGGYTQTMKVILDTNLKCTDRLDEDGNTALHFAAREGHAKAVALLLSHNADIVLNKQQASFLHLALHNKRKEVVLTIIRSKRWDECLKIFSHNSPGNKCPITEMIEYLPECMKVLLDFCMLHSTEDKSCRDYYIEYNFKYLQCPLEFTKKTPTQDVIYEPLTALNAMVQNNRIELLNHPVCKEYLLMKWLAYGFRAHMMNLGSYCLGLIPMTILVVNIKPGMAFNSTGIINETSDHSEILDTTNSYLIKTCMILVFLSSIFGYCKEAGQIFQQKRNYFMDISNVLEWIIYTTGIIFVLPLFVEIPAHLQWQCGAIAVYFYWMNFLLYLQRFENCGIFIVMLEVILKTLLRSTVVFIFLLLAFGLSFYILLNLQDPFSSPLLSIIQTFSMMLGDINYRESFLEPYLRNELAHPVLSFAQLVSFTIFVPIVLMNLLIGLAVGDIAEVQKHASLKRIAMQVELHTSLEKKLPLWFLRKVDQKSTIVYPNKPRSGGMLFHIFCFLFCTGEIRQEIPNADKSLEMEILKQKYRLKDLTFLLEKQHELIKLIIQKMEIISETEDDDSHCSFQDRFKKEQMEQRNSRWNTVLRAVKAKTHHLEP
Regarding B1, the “other: channel current” value is reported as “no change”.

The values are drawn from article PMC5281607.
